US20040248198A1 (ST JUDE CHILDREN S RESEARCH HOSPITAL, published 2004)
Where no end group is shown, it is not given here.

B1: H1 peptide (Hdm2 240-254, SEQ ID NO:27, SVSDQFSVEFEVESL) (peptide)
peptide: Ac-SVSDQFSVEFEVESL-NH2
notes: Synthetic peptide
B2: A1 peptide (human p14ARF 1-14, SEQ ID NO:26, MVRRFLVTLRIRRA) (peptide)
peptide: Ac-MVRRFLVTLRIRRA-NH2
notes: Synthetic peptide; also called human A1 (1-14)

How the values were obtained:
[1] = biological target: T1, His-tagged Hdm2 210-304 (human, UniProt Q00987 210-304); assay: SPR (Biacore), His-tagged Hdm2 210-304 captured by anti-His antibody, mouse Arf peptide as analyte, reference cell subtracted
T1 construct: not shown: thrombin-cleavable poly-His tag from pET28a
Procedure: Surface Plasmon Resonance. Binding studies were performed using a Biacore 3000 surface plasmon resonance (SPR) instrument (Biacore, Inc.). A Tetra-His™ Antibody (Qiagen, Inc.; Cat. #34670) was covalently attached to a carboxymethylated gold surface (C-1 chip; Biacore, Inc.). The carboxymethyl groups on the surface were activated with N-ethyl-N-(3-dimethylaminopropyl) carbodiimide (EDC) and N-hydroxysuccinimide (NHS) and the antibody was attached at pH 7.4 in 20 mM sodium phosphate buffer, 150 mM NaCl (PBS). Reactive sites remaining on the surface were blocked by reaction with ethanolamine. The His-tagged ligand was attached to the antibody by injecting a […] solution of the ligand in 10 mM HEPES, 150 mM NaCl, pH 7.4 (HBS-N buffer, Biacore) at a flow rate of 10 μL/Min through the flow cell. A reference cell was prepared similarly except that no His-tagged ligand was added. Binding was measured by flowing the non-His-tagged analyte through the reference and ligand-containing flow cells in sequence. Prior to injection of ligands, the chip surfaces were equilibrated in HBS-N buffer. Changes in the SPR response due to solvent differences and the injection process were monitored by injection of HBS-N buffer alone. Regeneration of the chip surface to remove bound analyte and ligand was accomplished by two 100 μL injections of 10 mM glycine, pH 2.0 through both flow cells. Data reported is-the difference in SPR signal between the flow cell containing analyte and the reference cell. Duplicate injections were made and the SPR response values reported are the average of these two injections.
Two libraries of peptides 15 amino acids in length were synthesized based on the sequence of exon 1β of mouse p19^Arf and the entire sequence of human p14^Arf. The sequence for the first peptide in each library corresponded to the first 15 amino acids of the protein sequences. […] This approach yielded two libraries of overlapping peptides spanning mouse p19^Arf residues 1-64 and human p14^Arf residues 1-132. The ability of these peptides to bind Hdm2 fragments was determined using the surface plasmon resonance (SPR) technique with a Biacore 3000 instrument.

[2] = biological target: B2; assay: CD titration, H1 peptide added stepwise to A1 peptide
Procedure: (§1) CD spectra were recorded with an Aviv 62DS instrument in 5 mM potassium phosphate (pH 7.0) using a 1 mm cuvette. In FIG. 1A, A1 was 4.5 μM, molar ratios were: 1:0.0, 1:0.1, 1:0.6, 1:0.9, & 1:1.3. In FIG. 1B, H1 was 2.5 μM, molar ratios were: 1:0.2, 1:0.7, 1:1.0, & 1:1.3. Data was collected for 3 seconds in 1 nm steps and 10 scans were averaged for each spectrum. The appearance of a minimum in the CD spectra of the assemblies near […] and the increase in ellipticity near 200 nm is consistent with the formation of β-strand-containing structures.
(§2) An end point was reached when the molar ratio of A1:H1 was 1:1. For example, further additions of the H1 peptide led to the appearance of disordered spectral features consistent with unbound, free H1 peptide (inset, FIG. 6a). The Fourier transform infrared (FT-IR) spectrum of the co-assemblies confirms the CD results and allows the β-structures to be classified as anti-parallel β-strands on the basis of the absorbances at 1618 cm-1 and 1679 cm-1 (FIG. 7) [Casal, H. L.; Kohler, U.; Mantsch, H. H., Biochim Biophys Acta 957:11-20 (1988)]. In summary, the individually disordered A1 and H1 peptides self-assemble into supramolecular structures comprised of anti-parallel β-strands.

[3] = biological target: B1; assay: CD and 1H NMR titration
Procedure: as §1, §2

T1 sequence (Q00987 210-304): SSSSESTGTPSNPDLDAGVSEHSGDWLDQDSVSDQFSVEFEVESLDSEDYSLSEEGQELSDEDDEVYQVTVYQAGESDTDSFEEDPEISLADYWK

Row | binding result [1] | Binder | further results
1 | no binding (tested: not given) | AFVNMLLRLERILRR (not fully specified, also called mouse p19Arf library peptide, residues 41-55) [41-55] | 
2 | binds | RVFLVKFVRSRRPRT (not fully specified, also called mouse p19Arf library peptide, residues 21-35) [21-35] | 
3 |  | B1 | binding result [2]: binds
4 | binds | KFVRSRRPRTASCAL (not fully specified, also called mouse p19Arf library peptide, residues 26-40) [26-40] | 
5 | binds | MGRRFLVTVRIQRAG (not fully specified, also called mouse p19Arf library peptide, residues 1-15) [1-15] | 
6 | binds | LVTVRIQRAGRPLQE (not fully specified, also called mouse p19Arf library peptide, residues 6-20) [6-20] | 
7 |  | B2 | molar ratio A1:H1 at the end point of the titration [3]: 1 mol A1 per mol H1
8 | no binding (tested: not given) | IQRAGRPLQERVFLV (not fully specified, also called mouse p19Arf library peptide, residues 11-25) [11-25] | 
